Test results from patent publication US20260242478A1 (published 2026).
Where no end group is shown, it is not given here.

Legend:
[1] = target: T1, PSMA Fab (006 PSMA Fab) (biotinylated (site not stated)); test: phage ELISA: clonal phage on biotinylated PSMA Fab captured on neutravidin plate, anti-M13 HRP detection
T1 construct: Captured as biotinylated PSMA Fab on neutravidin coated plates in the phage ELISA; also called Anti-PSMA Fab; anti-PSMA Fab

[2] = target: T1, PSMA Fab (006 PSMA Fab); test: phage ELISA: clonal phage on biotinylated PSMA Fab captured on neutravidin plate, wells pre-incubated with PSMA antigen as competitor, anti-M13 HRP detection
Protocol: (§1) Clonal phage were harvested as crude supernatants and screened via standard ELISAs. […] Prior to the addition of clonal phage. wells were incubated with blocking buffer and PSMA antigen or blocking buffer alone. Without washing or aspirating, clonal phage supernatants were then added to the wells and incubated for a short time. Wells were then washed followed by detection of bound phage using a horse radish conjugated anti-M13 antibody.

[3] = target: T2, PSMA Fab; test: clonal phage ELISA; biotinylated PSMA Fab on neutravidin plate, wells pre-incubated with PSMA antigen as competitor; anti-M13 HRP detection;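 also: crude clonal phage supernatants added to antigen-treated wells without a wash, incubated briefly, then bound phage read out via horse radish–conjugated anti-M13 antibody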
T2 construct: also called Anti-PSMA Fab; 006 PSMA Fab
Protocol: as §1

[4] = target: T2, PSMA Fab; test: clonal phage ELISA; biotinylated PSMA Fab on neutravidin plate, blocking buffer alone; anti-M13 HRP detection;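 also: crude clonal phage supernatants added without washing to wells pretreated with blocking buffer with or without PSMA antigen, short incubation, then washed before detecting bound phage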
Protocol: as §1

[5] = target: T3, PSMA Fab (006 PSMA Fab) (biotinylated (site not stated)); test: clonal phage supernatant on captured PSMA Fab pre-incubated with the competitor PSMA antigen, anti-M13-HRP detection
T3 construct: Biotinylated PSMA Fab captured on neutravidin coated plates in the phage ELISA; also called Anti-PSMA Fab; anti-PSMA Fab

[6] = target: T3, PSMA Fab (006 PSMA Fab); test: clonal phage supernatant on biotinylated PSMA Fab captured on neutravidin plate, anti-M13-HRP detection;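 also: before phage were added, wells received PSMA antigen in blocking buffer or blocking buffer alone, with no wash in between, followed by a short phage incubation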
Protocol: as §1

[7] = target: T4, Anti-PSMA Fab; test: clonal phage ELISA; biotinylated PSMA Fab on neutravidin plate, wells pre-incubated with PSMA antigen as competitor; anti-M13 HRP detection;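 also: crude clonal phage supernatants added to antigen-treated wells without a wash, incubated briefly, then bound phage read out via horse radish–conjugated anti-M13 antibody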
T4 construct: also called 006 PSMA Fab
Protocol: as §1

[8] = target: T4, Anti-PSMA Fab; test: clonal phage ELISA; biotinylated PSMA Fab on neutravidin plate, blocking buffer alone; anti-M13 HRP detection;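 also: crude clonal phage supernatants added without washing to wells pretreated with blocking buffer with or without PSMA antigen, short incubation, then washed before detecting bound phage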
Protocol: as §1

Row | Binder | Phage binding ELISA signal, Anti-PSMA Fab [1] | Phage binding ELISA signal, Anti-PSMA Fab in presence of PSMA [2] | Phage binding ELISA signal, Anti-PSMA Fab in presence of PSMA antigen [5] | Phage binding ELISA signal, Anti-PSMA Fab [6] | other results
1 | ESRLCVPTWMCTWL [Phage-3728] | 1.41 | 0.0946 | – | – | –
2 | MEPVCLPEWMCWGF [Phage-3747] | – | – | – | – | Phage binding ELISA signal, Anti-PSMA Fab with PSMA antigen [3]: 0.0902; Phage binding ELISA signal, Anti-PSMA Fab [4]: 1.38
3 | VMPRCEPIWMCRGF [Phage-3746] | – | – | – | – | Phage binding ELISA signal, Anti-PSMA Fab with PSMA antigen [3]: 0.0701; Phage binding ELISA signal, Anti-PSMA Fab [4]: 1.38
4 | GQAACVPSWMCSGF (cysteine pairing not given here; also: displayed on phage as pIII fusion, not shown: pIII filament protein of the bacteriophage) [Phage-3714] | – | – | 0.0867 | 1.42 | –
5 | GLPYCVPSWMCDGF [Phage-3700] | – | – | – | – | Phage binding ELISA signal, Anti-PSMA Fab in presence of PSMA [7]: 0.0858; Phage binding ELISA signal, Anti-PSMA Fab [8]: 1.44
6 | QSVMCRPAWMCEGF [Phage-3748] | – | – | – | – | Phage binding ELISA signal, Anti-PSMA Fab with PSMA antigen [3]: 0.0813; Phage binding ELISA signal, Anti-PSMA Fab [4]: 1.38
7 | FELYCVPAWMCSGF [Phage-3753] | – | – | – | – | Phage binding ELISA signal, Anti-PSMA Fab with PSMA antigen [3]: 0.16; Phage binding ELISA signal, Anti-PSMA Fab [4]: 1.37
8 | TLFACVPAWMCDGF [Phage-3726] | 1.41 | 0.0757 | – | – | –
9 | YGVQCVPSWMCQGF [Phage-3715] | 1.42 | 0.0735 | – | – | –
10 | PGALCVPFWMCQGF (not shown: pIII filament protein of the bacteriophage) [Phage-3702] | – | – | 0.108 | 1.44 | –
11 | NSSLCIPSWMCSGF [Phage-3752] | – | – | – | – | Phage binding ELISA signal, Anti-PSMA Fab with PSMA antigen [3]: 0.0738; Phage binding ELISA signal, Anti-PSMA Fab [4]: 1.37
12 | TDRVCTPAWMCQGL (not shown: pIII filament protein of the bacteriophage) [Phage-3708] | – | – | 0.0772 | 1.43 | –
13 | IERMCMPPWMCSAL [Phage-3716] | 1.42 | 0.0662 | – | – | –
14 | GDVRCVPSWMCEGY (not shown: pIII filament protein of the bacteriophage) [Phage-3704] | – | – | 0.0816 | 1.43 | –
15 | PGKVCEPIWMCLGF (cysteine pairing not given here; also: displayed on phage as pIII fusion) [Phage-3744] | – | – | – | – | Phage binding ELISA signal, Anti-PSMA Fab with PSMA antigen [3]: 0.124; Phage binding ELISA signal, Anti-PSMA Fab [4]: 1.38
16 | EHIRCQPSWMCWGF (cysteine pairing not given here; also: displayed on phage as pIII fusion, not shown: pIII filament protein of the bacteriophage) [Phage-3709] | – | – | 0.128 | 1.43 | –
17 | IAFRCVPEWMCSAF (cysteine pairing not given here; also: displayed on phage as pIII fusion, not shown: pIII filament protein of the bacteriophage) [Phage-3711] | – | – | 0.07 | 1.43 | –
18 | EIPLCRPEWMCTGL (not shown: pIII filament protein of the bacteriophage) [Phage-3706] | – | – | 0.126 | 1.43 | –
19 | SEALCVPKWMCHGF [Phage-3719] | 1.42 | 0.0994 | – | – | –
20 | EVWMCRPSWMCDGF (cysteine pairing not given here; also: displayed on phage as pIII fusion, not shown: pIII filament protein of the bacteriophage) [Phage-3712] | – | – | 0.0717 | 1.43 | –
21 | MEWHCKPKWMCEGF [Phage-3717] | 1.42 | 0.0772 | – | – | –

Row | Binder | Phage binding ELISA signal, Anti-PSMA Fab [1] | Phage binding ELISA signal, Anti-PSMA Fab in presence of PSMA [2] | Phage binding ELISA signal, Anti-PSMA Fab in presence of PSMA antigen [5] | Phage binding ELISA signal, Anti-PSMA Fab [6] | other results
22 | ESPICKPSWMCSGL [Phage-3718] | 1.42 | 0.0616 | – | – | –
23 | EVLLCKPSWMCDGF (not shown: pIII filament protein of the bacteriophage) [Phage-3701] | – | – | 0.185 | 1.44 | –
24 | VDHMCKPMWMCNGF (not shown: pIII filament protein of the bacteriophage) [Phage-3707] | – | – | 0.0673 | 1.43 | –
25 | VPALCVPNWMCSGL [Phage-3749] | – | – | – | – | Phage binding ELISA signal, Anti-PSMA Fab with PSMA antigen [3]: 0.0565; Phage binding ELISA signal, Anti-PSMA Fab [4]: 1.38
26 | GENWCVPQWMCDGF [Phage-3721] | 1.41 | 0.139 | – | – | –
27 | IDRHCVPRWMCDGL [Phage-3727] | 1.41 | 0.0751 | – | – | –
28 | EEKLCKPAWMCEWF [Phage-3724] | 1.41 | 0.096 | – | – | –
29 | EGRYCVPDWMCLGL (cysteine pairing not given here; also: displayed on phage as pIII fusion, not shown: pIII filament protein of the bacteriophage) [Phage-3710] | – | – | 0.0705 | 1.43 | –
30 | AYMKCSPAWMCEGF [Phage-3722] | 1.41 | 0.0811 | – | – | –
31 | EPRACVPFWMCLGF [Phage-3720] | 1.42 | 0.0796 | – | – | –
32 | PYAVCVPKWMCSGF [Phage-3723] | 1.41 | 0.0805 | – | – | –
33 | EQPACVPKWMCIGF [Phage-3750] | – | – | – | – | Phage binding ELISA signal, Anti-PSMA Fab with PSMA antigen [3]: 0.0893; Phage binding ELISA signal, Anti-PSMA Fab [4]: 1.38
34 | DVLMCTPRWMCDGF [Phage-3725] | 1.41 | 0.0822 | – | – | –
35 | LEGMCKPAWMCTGF (cysteine pairing not given here; also: displayed on phage as pIII fusion, not shown: pIII filament protein of the bacteriophage) [Phage-3713] | – | – | 0.0862 | 1.42 | –
36 | MSMSCVPLWMCSGF (not shown: pIII filament protein of the bacteriophage) [Phage-3705] | – | – | 0.0698 | 1.43 | –
37 | VPRMCIPHWMCEGI (not shown: pIII filament protein of the bacteriophage) [Phage-3703] | – | – | 0.0731 | 1.43 | –
38 | WIKECVPDWMCSGF [Phage-3745] | – | – | – | – | Phage binding ELISA signal, Anti-PSMA Fab with PSMA antigen [3]: 0.0803; Phage binding ELISA signal, Anti-PSMA Fab [4]: 1.38
39 | YLHECRPEWMCVGF [Phage-3699] | – | – | – | – | Phage binding ELISA signal, Anti-PSMA Fab in presence of PSMA [7]: 0.153; Phage binding ELISA signal, Anti-PSMA Fab [8]: 1.45
40 | DVPYCIPSWMCHGF [Phage-3698] | – | – | – | – | Phage binding ELISA signal, Anti-PSMA Fab in presence of PSMA [7]: 0.249; Phage binding ELISA signal, Anti-PSMA Fab [8]: 1.45
41 | ETPRCVPWWMCIDI [Phage-3751] | – | – | – | – | Phage binding ELISA signal, Anti-PSMA Fab with PSMA antigen [3]: 0.0731; Phage binding ELISA signal, Anti-PSMA Fab [4]: 1.37
